According to patent US20190015361A1 (Maxwell Biosciences, Inc., priority 2017, published 2019):

Test system: Aβ40 (t=0 days), Aβ42 (t=0 days), Aβ42 (t=24 days)
Test: SPRi interaction with the three immobilized Aβ forms
Assay type: binding, human
Settings: analyte flowed onto the SPRi chip for 10 minutes, all three Aβ forms

Chain of Aβ40 (t=0 days), Aβ42 (t=0 days), Aβ42 (t=24 days) (P05067 672-711 limits assumed): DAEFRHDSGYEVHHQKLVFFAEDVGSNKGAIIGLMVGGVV

B1: ovalbumin: non-correlated protein used as negative control sample in SPRi (Sigma-Aldrich, A5503) (protein)
chain: GSIGAASMEFCFDVFKELKVHHANENIFYCPIAIMSALAMVYLGAKDSTRTQINKVVRFDKLPGFGDSIEAQCGTSVNVHSSLRDILNQITKPNDVYSFSLASRLYAEERYPILPEYLQCVKELYRGGLEPINFQTAADQARELINSWVESQTNGIIRNVLQPSSVDSQTAMVLVNAIVFKGLWEKAFKDEDTQAMPFRVTEQESKPVQMMYQIGLFRVASMASEKMKILELPFASGTMSMLVLLPDEVSGLEQLESIINFEKLTEWTSSNVMEERKIKVYLPRMKMEEKYNLTSVLMAMGITDVFSSSANLSGISSAESLKISQAVHAAHAEINEAGREVVGSAEAGVDAASVSEEFRADHPFLFCIKHIATNAVLFFGRCVSP
In the case of B1, the SPRi interaction signal is reported as “did not produce interaction signals”.
